This series deals with T1, BSU Pol I (BSU polymerase) (Bacillus subtilis) (UniProt O34996).
T1 sequence: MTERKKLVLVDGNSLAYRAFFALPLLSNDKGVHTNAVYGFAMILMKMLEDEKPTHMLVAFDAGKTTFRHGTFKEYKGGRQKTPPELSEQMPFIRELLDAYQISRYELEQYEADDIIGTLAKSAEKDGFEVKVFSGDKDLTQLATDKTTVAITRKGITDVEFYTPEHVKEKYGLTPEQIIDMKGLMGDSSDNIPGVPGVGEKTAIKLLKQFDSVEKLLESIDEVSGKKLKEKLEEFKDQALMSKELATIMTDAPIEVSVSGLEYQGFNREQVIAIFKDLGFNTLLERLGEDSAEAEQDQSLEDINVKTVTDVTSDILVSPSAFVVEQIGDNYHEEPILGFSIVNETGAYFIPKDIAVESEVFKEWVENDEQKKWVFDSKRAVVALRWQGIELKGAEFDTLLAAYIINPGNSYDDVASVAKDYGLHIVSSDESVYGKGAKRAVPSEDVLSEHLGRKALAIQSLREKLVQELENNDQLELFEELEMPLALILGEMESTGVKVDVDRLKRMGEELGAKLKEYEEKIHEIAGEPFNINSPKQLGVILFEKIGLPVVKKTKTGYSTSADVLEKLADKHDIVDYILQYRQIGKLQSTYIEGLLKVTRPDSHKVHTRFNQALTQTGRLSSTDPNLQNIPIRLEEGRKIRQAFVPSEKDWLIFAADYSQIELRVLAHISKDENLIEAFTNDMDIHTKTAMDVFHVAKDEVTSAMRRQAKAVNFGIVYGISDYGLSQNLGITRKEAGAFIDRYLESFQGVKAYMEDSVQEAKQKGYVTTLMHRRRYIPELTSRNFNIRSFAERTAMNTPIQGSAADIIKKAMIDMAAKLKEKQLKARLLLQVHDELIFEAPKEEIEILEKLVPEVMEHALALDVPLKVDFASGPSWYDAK
The series is described as follows: stopped-flow fluorescence quenching. To be noted: 375 mM NaCl, 10 mM MgSO4, fluorescein-modified thymidine in primer, five bases from the incorporation site, Stopped flow: 20 mM ACES pH 7.4, 62.5-325 mM NaCl (Methods; 375 mM in Results), 10 mM MgSO4, 1 uM acetylated BSA, 0.02% Tween-20, 1 mM TCEP, 600 nM enzyme ….

These results are taken from publication PMC4354037.

In the case of “GCTTGCACAGGGCCTCGAC / CGTTAGTAAGGTCGAGGCCCTGTGCAAGC [stopped-flow primer/template duplex]”, the binding signal (fold signal over mismatch) (correct nucleotide dCTP 100 uM) came to 3.5. Further, the binding signal (reference signal (correct is 3.5-fold)) (mismatch nucleotide dATP) turned out to be 1.
